Source: article PMC13544220, “Glycemic and bodyweight effects of GIPR coding variation reflect differences in surface expression and intrinsic functional impairment” (Science Advances, 2026)
Substitutions are numbered along the chain they refer to. Numbers in names are those of the source.

Assays:
Assay type in all cases: cell-based, human
[1] = system: wild-type and variant SNAP-GIPR; test: Surface SNAP-GIPR expression (SNAP-tag labelling) in AD293 cells; conditions: for AD293 Surface: Fig S3E, mean; for Surface SNAP-GIPR expression: sheet Fig 1C;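 on all read-outs here: scaled to the experimental average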
Method in brief: (§1)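 Surface GIPR is quantified from wide-field images after labelling intact transfected cells with a membrane-impermeant SNAP probe at 500 nM for 10 min at room temperature. Specific signal, corrected for nontransfected cells, is normalized to the experiment-wide average or to wild-type.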

[2] = system: wild-type and variant SNAP-GIPR; test: Constitutive and agonist-mediated internalization, reversible SNAP-tag labelling, AD293 cells; parameters: key to Internalisation, Vehicle / Internalisation, +GIP / Internalisation, GIP-only: % internalization: residual fluorescence after Mesna vs pre-Mesna; Surface expression: unit not given here; conditions: Mean; for +GIP internalisation (100 nM) / GIP-specific internalisation (100 nM) / Constitutive internalisation (100 nM) / Surface expression: Fig 4E; for +GIP internalisation (100 nM) / GIP-specific internalisation (100 nM): GIP 100 nM; for Internalisation, +GIP / Internalisation, GIP-only / Internalisation, Vehicle: Fig S4C, AD293
Method in brief: (§2)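 % internalization = residual specific fluorescence after Mesna / pre-Mesna value. Imaging in TNE buffer pH 8.6; second image 10 min post-Mesna.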

[3] = system: wild-type and variant SNAP-GIPR; test: cADDis cAMP imaging in AD293 cells, ensemble, expression-matched and per decile; conditions: Fig S3F, cADDis, mean
Method in brief: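 Per-cell cAMP from cADDis intensity over time, with cells excluded by IBMX/FSK response criteria. Expression matching used wild-type surface-SNAP deciles, top and bottom trimmed, mean of decile means. Ensemble values ignore deciles. Wide-field imaging at 37 °C in KRBH with 6 mM glucose, 0.1% BSA, 24 h post-transfection in AD293.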

[4] = system: wild-type and variant SNAP-GIPR; test: Single-concentration GIP cAMP response by HTRF in AD293 cells; conditions: Fig S3F, HTRF, mean;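 further: ratio to experiment-wide average response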
Protocol: (§3) All variants were tested in parallel on each occasion to control for transfection efficiency differences between experiments.

[5] = system: wild-type and variant SNAP-GIPR; test: Single-concentration GIP cAMP response by HTRF in INS-1 cells; conditions: Fig S3E, mean
Protocol: as §3

[6] = system: wild-type and variant SNAP-GIPR; test: Surface SNAP-GIPR expression (SNAP-tag labelling) in INS-1 cells; conditions: Fig 4G; Mean
Method in brief: as §1

[7] = system: wild-type and variant SNAP-GIPR; test: Constitutive and agonist-mediated internalization, reversible SNAP-tag labelling, INS-1 cells; parameters: key to Internalisation, GIP-only / Internalisation, Vehicle / Internalisation, +GIP: % internalization: residual fluorescence after Mesna vs pre-Mesna; conditions: Mean; for +GIP internalisation (100 nM) / GIP-specific internalisation (100 nM) / Constitutive internalisation (100 nM): Fig 4G; for +GIP internalisation (100 nM) / GIP-specific internalisation (100 nM): GIP 100 nM; for Internalisation, +GIP / Internalisation, GIP-only / Internalisation, Vehicle: Fig S4C, INS-1
Method in brief: as §2

[8] = column repeated, paired with cAMP 100 nM

B1: S64A (protein, UniProt P48546 22-466, looked up, variant S64A)
Gastric inhibitory …: RAETGSKGQTAGELYQRWERYRRECQETLAAAEPPSGLACNGAFDMYVCWDYAAPNATARASCPWYLPWHHHVAAGFVLRQCGSDGQWGLWRDHTQCENPEKNEAFLDQRLILERLQVMYTVGYSLSLATLLLALLILSLFRRLHCTRNYIHINLFTSFMLRAAAILSRDRLLPRPGPYLGDQALALWNQALAACRTAQIVTQYCVGANYTWLLVEGVYLHSLLVLVGGSEEGHFRYYLLLGWGAPALFVIPWVIVRYLYENTQCWERNEVKAIWWIIRTPILMTILINFLIFIRILGILLSKLRTRQMRCRDYRLRLARSTLTLVPLLGVHEVVFAPVTEEQARGALRFAKLGFEIFLSSFQGFLVSVLYCFINKEVQSEIRRGWHHCRLRRSLGEEQRQLPERAFRALPSGSGPGEVPTSRGLSSGTLPGPGNEASRELESYC
AD293 Surface [1, 8]: 0.5377 | AD293 Surface ([1]; paired with cAMP 100 pM): 0.5377 | Surface SNAP-GIPR expression ([1]; replicate 1): 0.5948 | Surface SNAP-GIPR expression ([1]; replicate 2): 0.3831 | Surface SNAP-GIPR expression ([1]; replicate 3): 0.1917 | Surface SNAP-GIPR expression ([1]; replicate 4): 0.03284 | Surface SNAP-GIPR expression ([1]; replicate 5): 0.714 | Surface SNAP-GIPR expression ([1]; replicate 6): 0.449 | Surface SNAP-GIPR expression ([1]; replicate 7): 0.6736 | Surface SNAP-GIPR expression ([1]; replicate 8): 0.7024 | Surface SNAP-GIPR expression ([1]; replicate 9): 0.4646 | Surface SNAP-GIPR expression ([1]; replicate 10): 0.5884 | Surface SNAP-GIPR expression ([1]; replicate 11): 0.4154 | Surface SNAP-GIPR expression ([1]; replicate 12): 0.584 | Surface SNAP-GIPR expression ([1]; replicate 13): 0.53 | Surface SNAP-GIPR expression ([1]; replicate 14): 0.7656 | Surface SNAP-GIPR expression ([1]; replicate 15): 0.5316 | Surface SNAP-GIPR expression ([1]; replicate 16): 0.5279 | Surface SNAP-GIPR expression ([1]; replicate 17): 0.5713 | Surface SNAP-GIPR expression ([1]; replicate 18): 0.5329 | Surface SNAP-GIPR expression ([1]; replicate 19): 0.5212 | Surface SNAP-GIPR expression ([1]; replicate 20): 0.6932 | Surface SNAP-GIPR expression ([1]; replicate 21): 0.7203 | Surface SNAP-GIPR expression ([1]; replicate 22): 0.5804 | Surface SNAP-GIPR expression ([1]; replicate 23): 0.6278 | Surface SNAP-GIPR expression ([1]; replicate 24): 0.5394 | Surface SNAP-GIPR expression ([1]; replicate 25): 0.4918 | Surface SNAP-GIPR expression ([1]; replicate 26): 0.6002 | Surface SNAP-GIPR expression ([1]; replicate 27): 0.6328 | Surface SNAP-GIPR expression ([1]; replicate 28): 0.5573 | Surface SNAP-GIPR expression ([1]; replicate 29): 0.4754 | Surface SNAP-GIPR expression ([1]; replicate 30): 0.4312 | Surface SNAP-GIPR expression ([1]; replicate 31): 0.4378 | Surface SNAP-GIPR expression ([1]; replicate 32): 0.606 | Surface SNAP-GIPR expression ([1]; replicate 33): 0.6793 | Surface SNAP-GIPR expression ([1]; replicate 34): 0.4646 | Surface SNAP-GIPR expression ([1]; replicate 35): 0.5832 | Surface SNAP-GIPR expression ([1]; replicate 36): 0.4138 | Surface SNAP-GIPR expression ([1]; replicate 37): 0.5632 | Surface SNAP-GIPR expression ([1]; replicate 38): 0.4283 | Surface SNAP-GIPR expression ([1]; replicate 39): 0.6589 | Surface SNAP-GIPR expression ([1]; replicate 40): 0.5446 | Surface SNAP-GIPR expression ([1]; replicate 41): 0.5428 | +GIP internalisation (100 nM) [2]: 0.3536 | GIP-specific internalisation (100 nM) [2]: 0.06262 | Constitutive internalisation (100 nM) [2]: 0.291 | Surface expression [2]: 0.5133 | Internalisation, +GIP [2]: 68.8859 | Internalisation, GIP-only [2]: 12.125 | Internalisation, Vehicle [2]: 56.7609 | AD293 100 pM cADDis [3]: 21.6969 | AD293 100 nM cADDis [3]: 34.42 | AD293 100 pM HTRF [4]: 0.1562 | AD293 100 nM HTRF [4]: 1.061 | INS-1 cAMP (100 nM) [5]: 1.062 | Surface expression [6]: 0.6025 | +GIP internalisation (100 nM) [7]: 0.3425 | GIP-specific internalisation (100 nM) [7]: 0.05503 | Constitutive internalisation (100 nM) [7]: 0.2874 | Internalisation, +GIP [7]: 52.768 | Internalisation, GIP-only [7]: 8.16 | Internalisation, Vehicle [7]: 44.608

B2: R217L (protein, UniProt P48546 22-466, looked up, variant R217L)
Gastric inhibitory …: B1 Gastric inhibitory … with A43S, R196L
AD293 Surface [1, 8]: 0.4259 | AD293 Surface ([1]; paired with cAMP 100 pM): 0.4259 | Surface SNAP-GIPR expression ([1]; replicate 1): 0.4201 | Surface SNAP-GIPR expression ([1]; replicate 2): 0.7236 | Surface SNAP-GIPR expression ([1]; replicate 3): 0.824 | Surface SNAP-GIPR expression ([1]; replicate 4): 0.3234 | Surface SNAP-GIPR expression ([1]; replicate 5): 0.3781 | Surface SNAP-GIPR expression ([1]; replicate 6): 0.5304 | Surface SNAP-GIPR expression ([1]; replicate 7): 0.6162 | Surface SNAP-GIPR expression ([1]; replicate 8): 0.6634 | Surface SNAP-GIPR expression ([1]; replicate 9): 0.3807 | Surface SNAP-GIPR expression ([1]; replicate 10): 0.4129 | Surface SNAP-GIPR expression ([1]; replicate 11): 0.358 | Surface SNAP-GIPR expression ([1]; replicate 12): 0.3678 | Surface SNAP-GIPR expression ([1]; replicate 13): 0.04028 | Surface SNAP-GIPR expression ([1]; replicate 14): 0.3517 | Surface SNAP-GIPR expression ([1]; replicate 15): 0.3652 | Surface SNAP-GIPR expression ([1]; replicate 16): 0.3999 | Surface SNAP-GIPR expression ([1]; replicate 17): 0.3288 | Surface SNAP-GIPR expression ([1]; replicate 18): 0.3912 | Surface SNAP-GIPR expression ([1]; replicate 19): 0.3034 | Surface SNAP-GIPR expression ([1]; replicate 20): 0.3764 | Surface SNAP-GIPR expression ([1]; replicate 21): 0.4615 | Surface SNAP-GIPR expression ([1]; replicate 22): 0.364 | Surface SNAP-GIPR expression ([1]; replicate 23): 0.3963 | Surface SNAP-GIPR expression ([1]; replicate 24): 0.3543 | Surface SNAP-GIPR expression ([1]; replicate 25): 0.4738 | Surface SNAP-GIPR expression ([1]; replicate 26): 0.4835 | Surface SNAP-GIPR expression ([1]; replicate 27): 0.4338 | Surface SNAP-GIPR expression ([1]; replicate 28): 0.5117 | Surface SNAP-GIPR expression ([1]; replicate 29): 0.4222 | Surface SNAP-GIPR expression ([1]; replicate 30): 0.4733 | Surface SNAP-GIPR expression ([1]; replicate 31): 0.4841 | Surface SNAP-GIPR expression ([1]; replicate 32): 0.4011 | Surface SNAP-GIPR expression ([1]; replicate 33): 0.4465 | Surface SNAP-GIPR expression ([1]; replicate 34): 0.4033 | Surface SNAP-GIPR expression ([1]; replicate 35): 0.2194 | Surface SNAP-GIPR expression ([1]; replicate 36): 0.2502 | Surface SNAP-GIPR expression ([1]; replicate 37): 0.3794 | Surface SNAP-GIPR expression ([1]; replicate 38): 0.4678 | Surface SNAP-GIPR expression ([1]; replicate 39): 0.4904 | Surface SNAP-GIPR expression ([1]; replicate 40): 0.4789 | Surface SNAP-GIPR expression ([1]; replicate 41): 0.5101 | +GIP internalisation (100 nM) [2]: 0.224 | GIP-specific internalisation (100 nM) [2]: 0.04046 | Constitutive internalisation (100 nM) [2]: 0.1836 | Surface expression [2]: 0.4265 | Internalisation, +GIP [2]: 55.082 | Internalisation, GIP-only [2]: 10.4684 | Internalisation, Vehicle [2]: 44.6136 | AD293 100 pM cADDis [3]: 17.6282 | AD293 100 nM cADDis [3]: 34.7 | AD293 100 pM HTRF [4]: 0.09215 | AD293 100 nM HTRF [4]: 1.142 | INS-1 cAMP (100 nM) [5]: 1.196 | Surface expression [6]: 0.4654 | +GIP internalisation (100 nM) [7]: 0.2239 | GIP-specific internalisation (100 nM) [7]: 0.03772 | Constitutive internalisation (100 nM) [7]: 0.1862 | Internalisation, +GIP [7]: 51.715 | Internalisation, GIP-only [7]: 8.862 | Internalisation, Vehicle [7]: 42.8533
